Reference: patent publication US20250270341A1 (Alector, published 2025)

Tests used:
Assay in all cases: ELISA, hybridoma supernatant
huCD98hc ECD Avi-His = molecular target: T1, huCD98hc ECD Avi-His (human, UniProt P08195 105-529)
T1 construct: biotinylated on the Avi tag where captured on streptavidin; also called Human CD98-AVI-His; Human CD98hc-AVI-His
T1 sequence: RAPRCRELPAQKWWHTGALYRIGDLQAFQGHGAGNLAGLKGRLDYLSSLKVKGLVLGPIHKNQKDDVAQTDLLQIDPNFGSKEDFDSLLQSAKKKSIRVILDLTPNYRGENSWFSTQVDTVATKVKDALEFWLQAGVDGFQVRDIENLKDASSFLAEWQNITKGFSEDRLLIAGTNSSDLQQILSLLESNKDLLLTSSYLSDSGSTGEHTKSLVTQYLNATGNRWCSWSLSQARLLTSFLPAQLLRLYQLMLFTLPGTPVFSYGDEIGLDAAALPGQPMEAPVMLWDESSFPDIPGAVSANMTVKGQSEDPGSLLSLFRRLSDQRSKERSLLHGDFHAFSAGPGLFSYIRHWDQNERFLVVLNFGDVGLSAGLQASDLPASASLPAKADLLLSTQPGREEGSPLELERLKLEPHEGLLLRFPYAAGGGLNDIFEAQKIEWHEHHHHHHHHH
Experimental: (§1) Briefly, 96-well polystyrene plates were coated with 5 μg/ml of streptavidin (Thermo Fisher, Cat #PI21125) in coating buffer (0.05M carbonate buffer, pH 9.6, Sigma, Cat #C3041) overnight at 4° C. Coated plates were then blocked with ELISA diluent (PBS+0.5% BSA+0.05% Tween20) for one hour. Blocking buffer was removed and human, cyno, or mouse Avi-His-tagged CD98hc and Avi-His-tagged human TfR polypeptides were added at 1 μg/ml in ELISA diluent and captured for 1 hour at room temperature. After washing three times with 300 μl of PBST (PBS+0.05% Tween20, Thermo 28352), the hybridoma cell culture supernatants or 1 μg/ml of commercially available purified mouse anti-human CD98hc monoclonal antibody (Sigma Aldrich, Cat #SAB 4700503) and rat anti-mouse CD98hc antibody (Bio-Rad Laboratories, Hercules, CA, Cat #MCA2684) were added (50 μl/well) to each well. After 30 minutes of incubation at room temperature, the plates were washed three times with 300 μl of PBST. […] After a final set of washes (3×300 μl in PBST), 50 μl/well of BioFx TMB substrate (Surmodics, Eden Praire, MN, Cat #TMBW-1000-01) was added to the wells. The reaction was then quenched after 5-10 mins with 50 μl/well of 2N sulfuric acid. The plates were read for absorbance at 450 nm on a SpectraMax M5 (Molecular Devices, Sunnyvale, CA) using SoftMax Pro software.

Cyno CD98hc ECD Avi-His = molecular target: T2, Cyno CD98hc ECD Avi-His (cynomolgus macaque, UniProt P08195 105-529 (human entry))
T2 construct: biotinylated on the Avi tag where captured on streptavidin; also called Cyno CD98-AVI-His; Cyno CD98hc-AVI-His
T2 chain: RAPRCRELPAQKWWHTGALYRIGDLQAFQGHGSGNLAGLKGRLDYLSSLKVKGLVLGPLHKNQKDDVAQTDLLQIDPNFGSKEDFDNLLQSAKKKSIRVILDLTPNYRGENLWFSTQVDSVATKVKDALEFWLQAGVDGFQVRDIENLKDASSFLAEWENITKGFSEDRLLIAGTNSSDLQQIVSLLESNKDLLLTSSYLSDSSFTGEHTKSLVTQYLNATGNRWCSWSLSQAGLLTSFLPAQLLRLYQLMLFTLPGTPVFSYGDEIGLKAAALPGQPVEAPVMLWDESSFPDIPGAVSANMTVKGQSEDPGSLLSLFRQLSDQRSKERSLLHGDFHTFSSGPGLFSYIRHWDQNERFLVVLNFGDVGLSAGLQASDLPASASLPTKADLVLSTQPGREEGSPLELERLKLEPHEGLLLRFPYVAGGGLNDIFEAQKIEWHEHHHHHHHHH
Experimental: as §1

muCD98hc ECD Avi-His = molecular target: T3, muCD98hc ECD Avi-His (mouse, UniProt P10852 100-526)
T3 construct: biotinylated on the Avi tag where captured on streptavidin; also called Mouse CD98-AVI-His; Mouse CD98hc-AVI-His
T3 sequence: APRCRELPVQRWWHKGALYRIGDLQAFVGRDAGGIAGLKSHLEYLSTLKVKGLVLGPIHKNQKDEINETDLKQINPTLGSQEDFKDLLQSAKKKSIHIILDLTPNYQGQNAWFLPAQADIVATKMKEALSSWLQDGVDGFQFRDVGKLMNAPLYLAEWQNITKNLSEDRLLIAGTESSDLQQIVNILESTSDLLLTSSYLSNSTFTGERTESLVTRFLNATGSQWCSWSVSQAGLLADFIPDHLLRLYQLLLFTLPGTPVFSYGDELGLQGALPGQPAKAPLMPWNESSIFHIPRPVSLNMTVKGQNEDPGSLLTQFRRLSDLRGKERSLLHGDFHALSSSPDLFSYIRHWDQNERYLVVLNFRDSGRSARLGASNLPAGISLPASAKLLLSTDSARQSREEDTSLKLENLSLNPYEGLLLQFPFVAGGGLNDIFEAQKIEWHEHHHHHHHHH
Experimental: as §1

[1] = molecular target: T4, Human TfR-AVI-His (control) (human, UniProt P02786 89-760)
T4 construct: control protein; also called Avi-His-tagged human TfR; human transferrin receptor
T4 sequence (P02786 89-760 limits assumed): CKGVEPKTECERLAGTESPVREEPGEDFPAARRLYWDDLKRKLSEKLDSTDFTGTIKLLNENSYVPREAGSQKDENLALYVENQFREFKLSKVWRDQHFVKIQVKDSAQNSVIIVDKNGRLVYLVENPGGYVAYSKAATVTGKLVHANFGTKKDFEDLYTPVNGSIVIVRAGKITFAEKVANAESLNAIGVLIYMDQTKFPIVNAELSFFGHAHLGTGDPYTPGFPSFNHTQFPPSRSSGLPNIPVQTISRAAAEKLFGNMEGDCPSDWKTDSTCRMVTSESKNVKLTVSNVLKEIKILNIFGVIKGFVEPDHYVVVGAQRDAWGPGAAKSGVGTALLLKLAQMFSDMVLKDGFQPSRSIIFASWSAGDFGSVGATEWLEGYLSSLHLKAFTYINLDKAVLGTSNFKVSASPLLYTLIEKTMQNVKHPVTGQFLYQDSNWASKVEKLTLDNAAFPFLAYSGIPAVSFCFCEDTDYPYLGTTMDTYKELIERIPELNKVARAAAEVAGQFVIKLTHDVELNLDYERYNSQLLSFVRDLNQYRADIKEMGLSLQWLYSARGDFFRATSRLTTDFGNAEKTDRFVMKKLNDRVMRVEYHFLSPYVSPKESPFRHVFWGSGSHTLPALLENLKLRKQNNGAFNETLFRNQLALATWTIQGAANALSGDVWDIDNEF
Experimental: as §1

B1: CD98HC.04.063 (antibody, V domains shown)
VH: EVKLEESGGGLVQPGGSMILSCVASGFTFSNSWMNWVRQSPEKGLEWVAEIRLRSNNYATHYAESVKGRFTISRDDSKSTVYLQMNNLRAEDTGIYYCSRGDPGAYWGQGTLVTVSA
VL: DIQMTQSSSYLSVSLGNRVTITCKASDHIKNWLAWFQQKPGNAPRLLISGATILETGVPSRFSGSGSGKDYTLSITSLQTEDVATYYCQQYWSTPYTFGGGTKLEIK
notes: hybridoma IgG
huCD98hc ECD Avi-His
  OD450: 1.66
Cyno CD98hc ECD Avi-His
  OD450: 1.91
muCD98hc ECD Avi-His
  OD450: 0.0738
[1]
  OD450: 0.0629

B2: CD98HC.04.064 (antibody, V domains shown)
VH: QVQLQQPGAELVRPGASVKLSCKASGYTFTSYWMNWVRQRPGQGLEWIGLIDPSDSETHYNQMFKDRATLTVDKSSSTAYMQLSSLTSADPAVYYCARASYGKGYFDYWGQGTTLTVSS
VL: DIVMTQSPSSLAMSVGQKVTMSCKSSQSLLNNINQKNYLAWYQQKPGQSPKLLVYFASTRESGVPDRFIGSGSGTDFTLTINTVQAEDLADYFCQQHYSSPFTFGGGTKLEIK
notes: hybridoma IgG
huCD98hc ECD Avi-His
  OD450: 1.7
Cyno CD98hc ECD Avi-His
  OD450: 1.76
muCD98hc ECD Avi-His
  OD450: 0.073
[1]
  OD450: 0.0639

B3: CD98HC.04.046 (antibody, V domains shown)
VH: QIQLVQSGPVLKKPGETVKISCKASGYTFTNFGMNWVKQAPGKGLKWMGWIDTYTREPTYVDDFKGRFAFSLETSVTTAYLQINDLKNEDSATYFCARGESHWYFDVWGAGTTVTVSS
VL: QIVLTQSPAIMSASLGERVTMTCIVSSSVSSSYLYWYQQKPGSSPKLWIYSTSILASGVPGRFSGSGSGTSYSLTISSMEAEDAATYYCHQYHRSPPTFGGGTKLEIK
notes: hybridoma IgG
huCD98hc ECD Avi-His
  OD450: 1.38
Cyno CD98hc ECD Avi-His
  OD450: 1.88
muCD98hc ECD Avi-His
  OD450: 0.0817
[1]
  OD450: 0.0719

B4: CD98HC.04.058 (antibody, V domains shown)
VH: QVQLQQSGAELVRPGVSVKISCKASGYTFTDHTMHWVKQSHARSLEWIGVISTYFGDASYNPKFKGKATMTVDKSSNTAYMELARLTSEDSAIYYCARVGGRLRLGYYFDYWGQGTTLTVSS
VL: NIMMTQSPSSLAVSAGEKVTMNCKSSQTVLYSSNQKNYLAWYQQKPGQSPKLLIYWASTRESGVPDRFTGSGSGTDFTLTISSVQVEDLAVYYCHQYLSSYTFGGGTKLEIK
notes: hybridoma IgG
huCD98hc ECD Avi-His
  OD450: 1.34
Cyno CD98hc ECD Avi-His
  OD450: 1.73
muCD98hc ECD Avi-His
  OD450: 0.121
[1]
  OD450: 0.0976

B5: CD98HC.04.062 (antibody, V domains shown)
VH: EVQLVESGGDLVKPGGSLKLSCTASRFAFSTYDMSWVRQTPEKRLEWVAYISSGGGSTYFPDTVKGRFTISRDNAKNTLYLQMSSLKSEDTAMYYCARQDGHYPWFPYWGQGTLVTVSA
VL: DIVMSQSPSSLAVSVGEKVTMSCKSSQSLLYSGNQKTYLAWYQQKPGQSPKPLIYWASTRESGIPDRFTGSGSGTDFTLTISSVKAEDLAVYYCQQYYSYPPTFGAGTKLELK
notes: hybridoma IgG
huCD98hc ECD Avi-His
  OD450: 1.61
Cyno CD98hc ECD Avi-His
  OD450: 1.63
muCD98hc ECD Avi-His
  OD450: 0.0607
[1]
  OD450: 0.0561

B6: CD98HC.03.004 (antibody, V domains shown)
VH: DVQLQESGPGLVKPSQSLSLTCTVTGYSITNNYAWNWIRRFPGNKLEWMAYISYSGYTSYNPSLKSRISITRDTSKNQFFLQLNSVTTEDTATYYCTGYFYYYGGGSFDYWGQGTTLTVSS
VL: QAVVTQESALTTSPGETVTLTCRSSTGAVTTSNFANWVQEKPDHLFTGLIRGSNNRAPGVPARFSGSLIGDKAALTITGARTEDEAIYFCALWYSDHWVFGGGTKLTVL
notes: hybridoma IgG
huCD98hc ECD Avi-His
  OD450: 1.49
Cyno CD98hc ECD Avi-His
  OD450: 1.4
muCD98hc ECD Avi-His
  OD450: 0.0938
[1]
  OD450: 0.0905

B7: CD98HC.03.010 (antibody, V domains shown)
VH: EVQLQQSGTELVKPGASVKLSCTASGLDIKDTYLHWVKQRPEQGLEWIGKIDPANGNTKYNPKFQGKATITADTSSNTAYLQLSSLTSEDTAVHYCTTPYYSGSSYGDYWGQGTTLTVSS
VL: QIVLTQSPAIMSASPGEKVTLTCSASSSVSSSYLYWYQQKPGSSPKLWIYSTSNLASGVPARFSGSGSGTSYSLTISSMEAEDAASYFCHQWSRYPLTFGAGTKLELK
notes: hybridoma IgG
huCD98hc ECD Avi-His
  OD450: 1
Cyno CD98hc ECD Avi-His
  OD450: 1.77
muCD98hc ECD Avi-His
  OD450: 0.0625
[1]
  OD450: 0.0588
